Measurements as given in PMC6797804, “Histone H3K23-specific acetylation by MORF is coupled to H3K14 acylation” (Nature Communications, 2019).
Ends that are not written are not given here. * marks the point of attachment. Crotonyl(E) = C/C=C/C(=O)*; Butyryl = CCCC(=O)*

T1: MORF DPF domain (residues 211–322) F218A (human, UniProt Q8WYB5 211-322, F218A)
T1 construct: MORF (KAT6B) double PHD finger (DPF), residues 211–322; also called MORFDPF F218A mutant; source: E. coli Rosetta2 (DE3) pLysS, purified (glutathione Sepharose 4B, size exclusion)
T1 sequence (looked up): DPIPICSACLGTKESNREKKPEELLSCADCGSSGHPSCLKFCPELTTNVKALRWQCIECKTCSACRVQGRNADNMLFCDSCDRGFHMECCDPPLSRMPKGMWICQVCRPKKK

T2: MORF DPF domain (residues 211–322), wild type (human, UniProt Q8WYB5 211-322)
T2 construct: MORF (KAT6B) double PHD finger (DPF), residues 211–322; The methods say the GST tag was either cleaved with thrombin or left on; also called WT MORFDPF; DPF domain of MORF; source: E. coli Rosetta2 (DE3) pLysS, purified (glutathione Sepharose 4B, size exclusion); unlabeled or 15N-labeled
T2 sequence (looked up): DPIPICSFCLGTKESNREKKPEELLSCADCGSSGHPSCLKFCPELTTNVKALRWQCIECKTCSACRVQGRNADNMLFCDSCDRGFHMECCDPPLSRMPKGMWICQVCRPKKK

T3: MORF DPF domain (residues 211–322) F287A (human, UniProt Q8WYB5 211-322, F287A)
T3 sequence (looked up): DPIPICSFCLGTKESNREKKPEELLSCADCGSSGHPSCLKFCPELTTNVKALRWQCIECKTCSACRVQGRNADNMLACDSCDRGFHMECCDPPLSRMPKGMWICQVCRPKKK


Tests used:
[1] = target: T1, MORF DPF domain (residues 211–322) F218A; experiment: other fluorescence titration; tryptophan fluorescence, 25 °C; 0.8–2 µM MORFDPF in PBS pH 6.5 with 5 mM DTT, increasing concentrations of H3 peptides (residues 1–19); excitation 295 nm; details: both partners purified
[2] = target: T2, MORF DPF domain (residues 211–322), …; experiment: as above; details: both partners purified
[3] = target: T3, MORF DPF domain (residues 211–322) F287A; experiment: cell-based or functional assay
[4] = target: T3, MORF DPF domain (residues 211–322) F287A; experiment: NMR titration; 1H,15N HSQC at 298 K; H3 peptides (residues 1–19) titrated into 0.1–0.25 mM 15N-labeled WT or mutated MORFDPF in 1×PBS pH 6.5, 5 mM DTT, 8–10% D2O; details: both partners purified

| Binder | binding result [1] | Kd [2] [nM] | HAT activity of the MORFN F287A complex against the wild-type MORFN complex on H3K14cr peptide (residues 1–29), liquid HAT assay [3] [fold] | fold decrease in binding against the WT protein [4] [fold] |
| --- | --- | --- | --- | --- |
| ARTKQTARKSTGGK(Crotonyl(E))APRKQ (peptide, UniProt P68431 2-20, looked up, histone H3 N-terminal tail, residues 1–19; source: synthetic peptide) [histone H3K14cr peptide (residues 1–19 of H3)] | binds | 700 | 2 |  |
| ARTKQTARKSTGGK(Butyryl)APRKQ (peptide, UniProt P68431 2-20, looked up, histone H3 N-terminal tail, residues 1–19; source: synthetic peptide) [histone H3K14bu peptide (residues 1–19 of H3)] | binds |  |  |  |
| ARTKQTARKSTGGKAPRKQ (peptide, UniProt P68431 2-20, looked up, histone H3 N-terminal tail, residues 1–19; source: synthetic peptide) [unmodified histone H3 peptide (residues 1–19 of H3)] |  |  |  | ~1000 |
